For experiment [1], the target named is HA of A/California/04/2009 (CA04; H1N1pdm09) on virus particles (Influenza A virus A/California/04/2009 …, UniProt C3W5S1, strain). Put plainly: BLI.
Experiment [2] deals with Recombinant soluble HA of subtype H1 (A/California/07/2009, H1N1pdm09) (Influenza A virus A/California/07/2009 …, UniProt C3W5X2, strain). Briefly: BLI. (Biolayer interferometry detects binding as a change in optical thickness at a sensor tip.)
Experiment [3] deals with Recombinant soluble HA of subtype H7 (A/Netherland/219/2003, H7N7) (Influenza A virus …, UniProt Q6VMK1). Put plainly: BLI.
Experiment [4] concerns the target Recombinant soluble HA of subtype H3 (A/Perth/16/2009, H3N2) (Influenza A virus A/Perth/16/2009 (H3N2), UniProt C6KNH7, strain). Put plainly: BLI.
In experiment [5] the target is HA of A/Singapore/1/57 (H2), expressed in cells from pCAGGS (Influenza A virus A/Singapore/1/1957 …, UniProt Q67333, strain). Briefly: immunostaining of cells or tissue.
In experiment [6] the target is HA of A/mallard/Astrakhan/263/82 (H14), expressed in cells from pCAGGS (Influenza A virus …, UniProt P26136, strain). Briefly: immunostaining of cells or tissue.
In experiment [7] the target is HA of A/turkey/Wisconsin/66 (H9), expressed in cells from pCAGGS (Influenza A virus …, UniProt P03457, strain). Put plainly: immunostaining of cells or tissue.
For experiment [8], the target named is HA of A/duck/Australia/341/83 (H15), expressed in cells from pCAGGS (Influenza A virus …, UniProt Q82565, strain). Put plainly: immunostaining of cells or tissue.
Experiment [9] deals with HA of A/duck/Czechoslovakia/56 (H4), expressed in cells from pCAGGS (Influenza A virus …, UniProt P19696, strain). Briefly: immunostaining of cells or tissue.
For experiment [10], the target named is HA of A/duck/Memphis/546/74 (H11), expressed in cells from pCAGGS (Influenza A virus …, UniProt Q0A426, strain). Put plainly: immunostaining of cells or tissue.
In experiment [11] the target is HA of A/gull/Maryland/704/77 (H13), expressed in cells from pCAGGS (Influenza A virus …, UniProt P13103, strain). Put plainly: immunostaining of cells or tissue.
Experiment [12] concerns the target HA of A/chicken/Germany/N/49 (H10), expressed in cells from pCAGGS (Influenza A virus …, UniProt P12581, strain). Briefly: immunostaining of cells or tissue.
For experiment [13], the target named is HA of A/turkey/Ontario/6118/68 (H8), expressed in cells from pCAGGS (Influenza A virus …, UniProt P03456, strain). Briefly: immunostaining of cells or tissue.

The source of these data is article PMC5360590 (EBioMedicine, 2017).

Usually Kd stands for a measure of binding affinity in units of concentration. The koff is the rate constant with which the complex falls apart. As a reminder, the kon is the rate constant with which the complex forms.

B1: S9-1-10/5-1, recombinant monoclonal human IgG (IgG1, kappa) (antibody, V domains shown)
VH: QLHLQESGPGLLKPSATLSLTCTVSGGSMNNYYWSWVRQAPGKGLEWIGYIFHSGSTNYSPPLKSRVTISIDTATNQFFLRLNSVTAADTAVYYCARMSRGVFSSSRFFGLDVWGRGTAVAVSS
VL: EIVLTQSPATLSVSPGERATLSCRASQSVASNLAWYQQKPGQAPRLLISAASTRATDIPARFSGSGSGTEFTLTISSLQSEDFAVYYCQQYNNWLSFTFGPGTKVDMK
For the molecule B1, the binding result in experiment [1], in [5], in experiment [6], in experiment [7], in experiment [8] and in [9] was “binds” throughout. In addition, the binding result in experiment [10], in [11], in [12] and in experiment [13] was “binds” in each case. The Kd is 8.5 pM in experiment [2], 900 pM in [3] and 34000 pM in experiment [4]. In addition, the koff is 6.7e-06 s⁻¹ in experiment [2], 0.00037 s⁻¹ in [3] and 0.002 s⁻¹ in experiment [4]. Further, the kon came to 790000 M⁻¹ s⁻¹ in experiment [2], 410000 M⁻¹ s⁻¹ in [3] and 59000 M⁻¹ s⁻¹ in experiment [4].
